Data as given in publication PMC10334806 (Proceedings of the National Academy of Sciences of the …, 2023).

Biological target: T1, GST-MP (MONOPTEROS / AUXIN RESPONSE FACTOR5) (Arabidopsis thaliana, UniProt P93024 1-902)
T1 sequence (looked up): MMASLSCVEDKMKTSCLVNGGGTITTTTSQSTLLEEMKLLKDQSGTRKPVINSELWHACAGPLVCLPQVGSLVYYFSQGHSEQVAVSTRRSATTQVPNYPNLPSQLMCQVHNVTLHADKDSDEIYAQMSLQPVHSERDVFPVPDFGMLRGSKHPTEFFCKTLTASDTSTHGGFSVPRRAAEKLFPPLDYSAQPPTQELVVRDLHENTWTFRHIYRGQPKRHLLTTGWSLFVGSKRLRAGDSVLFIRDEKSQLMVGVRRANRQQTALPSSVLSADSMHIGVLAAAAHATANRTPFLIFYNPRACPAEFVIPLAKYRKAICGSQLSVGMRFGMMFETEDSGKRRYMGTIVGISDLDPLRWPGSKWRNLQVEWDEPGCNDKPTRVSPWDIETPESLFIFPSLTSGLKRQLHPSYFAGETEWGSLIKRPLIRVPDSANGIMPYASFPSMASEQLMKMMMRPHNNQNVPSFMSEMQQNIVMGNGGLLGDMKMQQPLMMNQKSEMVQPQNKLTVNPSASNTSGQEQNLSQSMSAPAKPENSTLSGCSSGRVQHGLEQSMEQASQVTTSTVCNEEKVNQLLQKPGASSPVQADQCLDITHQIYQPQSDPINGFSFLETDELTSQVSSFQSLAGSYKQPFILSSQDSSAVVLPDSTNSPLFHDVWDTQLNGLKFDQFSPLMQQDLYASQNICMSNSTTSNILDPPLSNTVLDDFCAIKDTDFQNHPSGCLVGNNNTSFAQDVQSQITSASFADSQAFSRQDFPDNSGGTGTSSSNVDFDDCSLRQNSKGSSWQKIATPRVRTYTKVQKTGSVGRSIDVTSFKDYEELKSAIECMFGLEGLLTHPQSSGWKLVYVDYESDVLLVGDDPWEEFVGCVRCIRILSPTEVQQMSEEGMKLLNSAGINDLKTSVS
Assay: pull-down

B1: 6xHis-MBP-DRN (residues 1 to 200, protein-protein interaction domain) (domain or fragment)
chain: not shown
B1: binds.

B2: 6xHis-MBP-DRNL (DORNROSCHEN-LIKE) (natural protein)
chain: not shown
B2: binds.
